The subject of one series is NOTCH4. Nature of the series: Cell fractionation and Western blot for HES1 and NOTCH4-ICD in HC11 cells. The format is cell-based, mouse. Particulars: HC11 cells treated during differentiation. As to the method:
Notch receptor activation can be regulated through direct interactions with binding partners^24. […] To address this possibility, co-immunoprecipitation experiments were performed using MBA-MD-231 cells lysates, which express detectable levels of all four Notch receptors (NOTCH1-4). Endogenous ROBO1 co-immunoprecipitated with NOTCH4, but not […], NOTCH2 or NOTCH3 (FIG. 3H and data not shown). Next, the expression and subcellular localization of the NOTCH4 intracellular domain (N4-ICD) and HES1 was examined in control (Scr) and Robo1 (siR1) knockdown HC11 cells. Expression of Robo1 was inhibited in HC11 cells that were then primed for differentiation as described above. […] This effect was not observed in control Robo1 knockdown cells engineered to overexpress Robo1 (siR1+o/e) or cells treated with the γ-secretase inhibitor GSI (siR1+GSI) (FIGS. 3I-3K).
To examine the effects of ROBO1-ECD fragments on Notch signaling, HC11 cells were treated with ROBO1-ECD fragments and Notch effector expression assessed. […] In addition, HC11 cells were treated with ROBO-Ig5 during differentiation. These cells were then fractionated and a Western blot performed to detect HES1 and NOTCH4-ICD (FIG. 8B).
Protein lysates were prepared by directly lysing adherent cells in 1× sample buffer supplemented with 5% beta-mercaptoethanol and boiled for 5 minutes. Protein lysate was resolved by SDS-PAGE and transferred to a PVDF for 90 minutes at 400 mA or overnight at 30 mA. Primary antibodies were used at the concentration indicated in Table 1 and incubated overnight at 4° C. HRP conjugated secondary antibodies (Jackson Labs) were used at 1:3000 and incubated for 45 minutes at room temp. All proteins were detected using Clarity ECL (BioRad) using a BioRad Chemi-Doc MP Imager and quantified using ImageLab software as previously described a.
Background: In western blotting, separated proteins are transferred to a membrane and probed.

Series [1] is described as follows: Western blot of TCA-precipitated media for intact ROBO1-Ig5. The format is physicochemical. Particulars: after 6 days in media, absence and presence of heparin (300 ng/ml). An excerpt: Three recombinant ROBO1 ECD constructs were constructed: one comprising two immunoglobulin (Ig) domains (ROBO1-Ig2), another comprising all five Ig domains (ROBO1-Ig5), and another comprising the entire extracellular domain (ROBO1-Ecto) (FIG. 6A). In other constructs, HA (hemagglutinin), Myc, and human and mouse immunoglobulin Fc were fused to the Robo1 ECDs (FIG. 6A, 5F right). Extracellular domains of Deleted in Colorectal Cancer (DCC), a structurally similar Ig superfamily member to ROBO1, comprising either two Ig (DCC-Ig2) or four Ig (DCC-Ig4) domains and tagged with HA were constructed for use as negative controls (FIG. 6A, 5F right). Expression secretion of the constructs was confirmed by overexpressing the constructs in HEK293 cells and performing Western blots on cell lysates and media (FIG. 6B). […] Robo1-Ig5 as used herein was expressed in HEK-293 cells in the absence and presence of heparin (300 ng/ml). Media were collected from these ROBO1-Ig5 overexpressing cells on days two, four and six following plasmid transfection. Dot blot dilution assays of the collected media were performed to evaluate the relative secretion of this soluble ROBO1 ECD (FIG. 6C).
Add 1 volume of TCA stock to 4 volumes of protein sample. Incubate 10 min at 4° C. Spin tube in microcentrifuge at 14K rpm, 5 min. Remove supernatant, leaving protein pellet intact Wash pellet with 200 μl cold acetone. […]

Another series deals with HC11 cells. Nature of the series: HC11 dome assay (milk dome formation on differentiation in DIP media). The format is cell-based, mouse.

“Also recorded” adds a separate entry of the source.

B1: ROBO1-Ig5: recombinant soluble ROBO1 ECD construct comprising all five Ig domains (protein)
chain: SRLRQEDFPPRIVEHPSDLIVSKGEPATLNCKAEGRPTPTIEWYKGGERVETDKDDPRSHRMLLPSGSLFFLRIVHGRKSRPDEGVYICVARNYLGEAVSHNASLEVAILRDDFRQNPSDVMVAVGEPAVMECQPPRGHPEPTISWKKDGSPLDDKDERITIRGGKLMITYTRKSDAGKYVCVGTNMVGERESEVAELTVLERPSFVKRPSNLAVTVDDSAEFKCEARGDPVPTVRWRKDDGELPKSRYEIRDDHTLKIRKVTAGDMGSYTCVAENMVGKAEASATLTVQEPPHFVVKPRDQVVALGRTVTFQCEATGNPQPAIFWRREGSQNLLFSYQPPQSSSRFSVSQTGDLTVTNVQRSDVGYYICQTLNVAGSIITKAYLEVTDVIADRPPPVIRQGPVNQTVAVDGTLTLSCVATGSPVPTILWRKDGVLVSTQDSRIKQLESGVLQIRYAKLGDTGRYTCTASTPSGEATWSAYIEVQEF
On to B1, for which the “NOTCH4-ICD in the cytoplasmic fraction” value with NOTCH4 is on record as “lower; also recorded: reduced”. Further, in the series on NOTCH4 (relative to control treatment), the “HES1 protein in the nuclear fraction” value is “lower levels; also recorded: decreased” and the “NOTCH4-ICD (N4-ICD) protein in the nuclear fraction” value was “lower levels; also recorded: decreased”. For the same molecule, in series [1], the “integrity of ROBO1-Ig5 protein in media” value is on record as “intact; also recorded: no protein degradation”. Moreover, the “dome formation in control cells (Scr)” value in the series with HC11 cells (HC11 Scramble KD (Scr) cells, ROBO1-ECD treatment) was “increased dome formation”. Besides, the “dome formation in response to a titration of ECD fragments” value in the series with HC11 cells (HC11 cells, increasing ECD concentration) is “higher rates of dome formation”. Besides, in the series on HC11 cells (HC11 cells, vs same fragments generated in the absence of heparin (300 ng/ml)), the “dome formation with ECD fragments generated in the presence of heparin” value was “fewer domes; also recorded: diminished”. Besides, in the series with HC11 cells (HC11 shNotch4 cells, ROBO1-Ig5 treatment), the “dome formation in Notch4 knockdown cells (shNotch4)” value was “same level of dome formation as untreated Notch4 knockdown cells; also recorded: unaffected”. For the same molecule, the “dome formation in cells in which Robo1 expression was inhibited (shRobo1)” value with HC11 cells (HC11 shRobo1 cells, ROBO1-Ig5 treatment) is on record as “same level as that of control cells (Scr) treated with ROBO1-ECD fragments; also recorded: rescued”.

Source of the values: US12139531B2, “Compositions and methods useful in promoting milk production” (The Regents of the University of California, priority 2019, dated 2024).
